Reference: paper PMC10786891, “Massively parallel profiling of RNA-targeting CRISPR-Cas13d”

T1: EsCas13d, nuclease-dead (Eubacterium siraeum, UniProt B0MS50, R295A;H300A;R849A;H854A)
T1 sequence: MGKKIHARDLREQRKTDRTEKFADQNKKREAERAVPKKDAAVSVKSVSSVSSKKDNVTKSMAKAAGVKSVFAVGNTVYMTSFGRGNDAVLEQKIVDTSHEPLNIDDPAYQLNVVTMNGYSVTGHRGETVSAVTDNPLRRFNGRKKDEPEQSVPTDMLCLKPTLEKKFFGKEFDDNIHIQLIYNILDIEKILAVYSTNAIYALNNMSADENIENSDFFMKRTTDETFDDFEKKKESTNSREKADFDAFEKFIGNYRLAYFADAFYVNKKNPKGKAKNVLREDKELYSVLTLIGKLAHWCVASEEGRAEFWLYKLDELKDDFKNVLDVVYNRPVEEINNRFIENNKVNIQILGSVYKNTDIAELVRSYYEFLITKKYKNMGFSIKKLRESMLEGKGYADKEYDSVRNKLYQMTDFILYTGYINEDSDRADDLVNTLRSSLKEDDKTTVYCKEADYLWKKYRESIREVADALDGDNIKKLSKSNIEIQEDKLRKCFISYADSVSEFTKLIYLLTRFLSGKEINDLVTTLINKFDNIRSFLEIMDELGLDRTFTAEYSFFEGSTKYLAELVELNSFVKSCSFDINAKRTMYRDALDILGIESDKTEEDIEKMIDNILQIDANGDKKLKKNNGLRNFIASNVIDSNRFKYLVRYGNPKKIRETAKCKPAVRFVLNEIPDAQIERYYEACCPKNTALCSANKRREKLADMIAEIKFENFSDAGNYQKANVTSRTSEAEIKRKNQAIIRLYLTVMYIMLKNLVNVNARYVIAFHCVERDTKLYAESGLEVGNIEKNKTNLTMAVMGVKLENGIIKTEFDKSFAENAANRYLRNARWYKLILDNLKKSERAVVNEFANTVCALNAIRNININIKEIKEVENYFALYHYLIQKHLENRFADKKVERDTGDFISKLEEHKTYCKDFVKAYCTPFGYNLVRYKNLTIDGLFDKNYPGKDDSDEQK

B1: target 1 A1G,U8A (mixed)
RNA 1: CACCCGUGCAAAAAUGCAGGGGUCUAAAACUGAGCGGAUAACCUCUCUAUGG
RNA 2: GGGAAUGGAUCCACAUCUACGAAUUCGUACCAUAGAGAGGUUAACCGCUCGCCGAGAUCGGAAGAGCACACGU
B2: target 1 U8A (mixed)
RNA 1: CACCCGUGCAAAAAUGCAGGGGUCUAAAACUGAGCGGAUAACCUCUCUAUGG
RNA 2: GGGAAUGGAUCCACAUCUACGAAUUCGUACCAUAGAGAGGUUAACCGCUCACCGAGAUCGGAAGAGCACACGU
B3: target 3 insC 3' of 5,insU 3' of 5 (mixed)
RNA 1: CACCCGUGCAAAAUUGCAGGGGUCUAAAACGACCUGAAUAUUUCAGAUCAAA
RNA 2: GGGAAUGGAUCCACAUCUACGAAUUCGUUUUUGAUCUGAAAUAUUCACUGGUCUGCAGAUCGGAAGAGCACACGU
B4: target 3 C6G,A11C (mixed)
RNA 1: CACCCGUGCAAAAUUGCAGGGGUCUAAAACGACCUGAAUAUUUCAGAUCAAA
RNA 2: GGGAAUGGAUCCACAUCUACGAAUUCGUUUUUGAUCUGAACUAUUGAGGUCUGCAGAUCGGAAGAGCACACGU
B5: target 3 insA 3' of 6,insA 3' of 4 (mixed)
RNA 1: CACCCGUGCAAAAUUGCAGGGGUCUAAAACGACCUGAAUAUUUCAGAUCAAA
RNA 2: GGGAAUGGAUCCACAUCUACGAAUUCGUUUUUGAUCUGAAAUAUUCAAGAGUCUGCAGAUCGGAAGAGCACACGU
B6: target 3 insG 3' of 6,insC 3' of 4 (mixed)
RNA 1: CACCCGUGCAAAAUUGCAGGGGUCUAAAACGACCUGAAUAUUUCAGAUCAAA
RNA 2: GGGAAUGGAUCCACAUCUACGAAUUCGUUUUUGAUCUGAAAUAUUCGAGCGUCUGCAGAUCGGAAGAGCACACGU
B7: target 3 insG 3' of 7,insC 3' of 4 (mixed)
RNA 1: CACCCGUGCAAAAUUGCAGGGGUCUAAAACGACCUGAAUAUUUCAGAUCAAA
RNA 2: GGGAAUGGAUCCACAUCUACGAAUUCGUUUUUGAUCUGAAAUAUUGCAGCGUCUGCAGAUCGGAAGAGCACACGU
B8: target 3 insC 3' of 8,insA 3' of 7 (mixed)
RNA 1: CACCCGUGCAAAAUUGCAGGGGUCUAAAACGACCUGAAUAUUUCAGAUCAAA
RNA 2: GGGAAUGGAUCCACAUCUACGAAUUCGUUUUUGAUCUGAAAUAUCUACAGGUCUGCAGAUCGGAAGAGCACACGU
B9: target 3 G4C,A5G (mixed)
RNA 1: CACCCGUGCAAAAUUGCAGGGGUCUAAAACGACCUGAAUAUUUCAGAUCAAA
RNA 2: GGGAAUGGAUCCACAUCUACGAAUUCGUUUUUGAUCUGAAAUAUUCGCGUCUGCAGAUCGGAAGAGCACACGU
B10: target 3 insG 3' of 5,insU 3' of 5 (mixed)
RNA 1: CACCCGUGCAAAAUUGCAGGGGUCUAAAACGACCUGAAUAUUUCAGAUCAAA
RNA 2: GGGAAUGGAUCCACAUCUACGAAUUCGUUUUUGAUCUGAAAUAUUCAGUGGUCUGCAGAUCGGAAGAGCACACGU
B11: target 3 insG 3' of 22,insU 3' of 22 (mixed)
RNA 1: CACCCGUGCAAAAUUGCAGGGGUCUAAAACGACCUGAAUAUUUCAGAUCAAA
RNA 2: GGGAAUGGAUCCACAUCUACGAAUUCGUUUGUUUGAUCUGAAAUAUUCAGGUCUGCAGAUCGGAAGAGCACACGU
B12: target 3 insC 3' of 21,insG 3' of 6 (mixed)
RNA 1: CACCCGUGCAAAAUUGCAGGGGUCUAAAACGACCUGAAUAUUUCAGAUCAAA
RNA 2: GGGAAUGGAUCCACAUCUACGAAUUCGUUUUCUGAUCUGAAAUAUUCGAGGUCUGCAGAUCGGAAGAGCACACGU
B13: target 3 G3U,A5U (mixed)
RNA 1: CACCCGUGCAAAAUUGCAGGGGUCUAAAACGACCUGAAUAUUUCAGAUCAAA
RNA 2: GGGAAUGGAUCCACAUCUACGAAUUCGUUUUUGAUCUGAAAUAUUCUGUUCUGCAGAUCGGAAGAGCACACGU
B14: target 3 insA 3' of 22,insC 3' of 22 (mixed)
RNA 1: CACCCGUGCAAAAUUGCAGGGGUCUAAAACGACCUGAAUAUUUCAGAUCAAA
RNA 2: GGGAAUGGAUCCACAUCUACGAAUUCGUUUACUUGAUCUGAAAUAUUCAGGUCUGCAGAUCGGAAGAGCACACGU
B15: target 3 insG 3' of 8,insU 3' of 6 (mixed)
RNA 1: CACCCGUGCAAAAUUGCAGGGGUCUAAAACGACCUGAAUAUUUCAGAUCAAA
RNA 2: GGGAAUGGAUCCACAUCUACGAAUUCGUUUUUGAUCUGAAAUAUGUCUAGGUCUGCAGAUCGGAAGAGCACACGU
B16: target 3 G4C,U8G (mixed)
RNA 1: CACCCGUGCAAAAUUGCAGGGGUCUAAAACGACCUGAAUAUUUCAGAUCAAA
RNA 2: GGGAAUGGAUCCACAUCUACGAAUUCGUUUUUGAUCUGAAAUAGUCACGUCUGCAGAUCGGAAGAGCACACGU
B17: target 3 U2A,A5G (mixed)
RNA 1: CACCCGUGCAAAAUUGCAGGGGUCUAAAACGACCUGAAUAUUUCAGAUCAAA
RNA 2: GGGAAUGGAUCCACAUCUACGAAUUCGUUUUUGAUCUGAAAUAUUCGGGACUGCAGAUCGGAAGAGCACACGU
B18: target 3 insA 3' of 4,insC 3' of 4 (mixed)
RNA 1: CACCCGUGCAAAAUUGCAGGGGUCUAAAACGACCUGAAUAUUUCAGAUCAAA
RNA 2: GGGAAUGGAUCCACAUCUACGAAUUCGUUUUUGAUCUGAAAUAUUCAGACGUCUGCAGAUCGGAAGAGCACACGU
B19: target 3 insC 3' of 22,insU 3' of 5 (mixed)
RNA 1: CACCCGUGCAAAAUUGCAGGGGUCUAAAACGACCUGAAUAUUUCAGAUCAAA
RNA 2: GGGAAUGGAUCCACAUCUACGAAUUCGUUUCUUGAUCUGAAAUAUUCAUGGUCUGCAGAUCGGAAGAGCACACGU
B20: target 3 insU 3' of 9,insC 3' of 7 (mixed)
RNA 1: CACCCGUGCAAAAUUGCAGGGGUCUAAAACGACCUGAAUAUUUCAGAUCAAA
RNA 2: GGGAAUGGAUCCACAUCUACGAAUUCGUUUUUGAUCUGAAAUAUUUCCAGGUCUGCAGAUCGGAAGAGCACACGU
B21: target 3 insG 3' of 22,insG 3' of 6 (mixed)
RNA 1: CACCCGUGCAAAAUUGCAGGGGUCUAAAACGACCUGAAUAUUUCAGAUCAAA
RNA 2: GGGAAUGGAUCCACAUCUACGAAUUCGUUUGUUGAUCUGAAAUAUUCGAGGUCUGCAGAUCGGAAGAGCACACGU
B22: target 3 insA 3' of 14,insC 3' of 3 (mixed)
RNA 1: CACCCGUGCAAAAUUGCAGGGGUCUAAAACGACCUGAAUAUUUCAGAUCAAA
RNA 2: GGGAAUGGAUCCACAUCUACGAAUUCGUUUUUGAUCUGAAAAUAUUCAGGCUCUGCAGAUCGGAAGAGCACACGU
B23: target 3 U8G,U22C (mixed)
RNA 1: CACCCGUGCAAAAUUGCAGGGGUCUAAAACGACCUGAAUAUUUCAGAUCAAA
RNA 2: GGGAAUGGAUCCACAUCUACGAAUUCGUUCUUGAUCUGAAAUAGUCAGGUCUGCAGAUCGGAAGAGCACACGU
B24: target 3 insA 3' of 10,insU 3' of 5 (mixed)
RNA 1: CACCCGUGCAAAAUUGCAGGGGUCUAAAACGACCUGAAUAUUUCAGAUCAAA
RNA 2: GGGAAUGGAUCCACAUCUACGAAUUCGUUUUUGAUCUGAAAUAAUUCAUGGUCUGCAGAUCGGAAGAGCACACGU

molecular target: T1, EsCas13d, nuclease-dead; test: crRNA (strand 1, pre-loaded); Mg2+; 40 mM Tris-HCl pH 7.5, 150 mM NaCl, 6 mM MgCl2, 1 mM DTT, 0.1% Tween-20, 0.2 mg/ml BSA; 25 C; 10 min per concentration, then washed; details: tags: His6-TwinStrep-SUMO cleaved; N-terminal SNAP kept (SNAP-Surface 488); label: 3' end held by stalled T7 RNA polymerase

In order of rising Kd:
1. B17  3.12 ± 0.355 nM
2. B3  5.23 ± 0.375 nM
3. B5  10.8 ± 0.9 nM
4. B19  12.3 ± 1.6 nM
5. B6  13.2 ± 1.5 nM
6. B9  14.7 ± 1.1 nM
7. B14  15 ± 1.4 nM
8. B10  18.1 ± 2.95 nM
9. B2  22.2 ± 1.7 nM
10. B11  28 ± 4.5 nM
11. B15  28.3 ± 3.3 nM
12. B4  30.1 ± 4.65 nM
13. B1  31.7 ± 1.8 nM
14. B13  32.5 ± 4.5 nM
15. B8  40.5 ± 4 nM
16. B24  58.5 ± 6.5 nM
17. B22  59 ± 9.5 nM
18. B7  64 ± 8 nM
19. B16  69 ± 8 nM
20. B21  90 ± 41.5 nM
21. B23  90 ± 40 nM
22. B12  100 ± 40 nM
23. B20  100 ± 21 nM
24. B18  ~110 nM
